We go through 22 substances from patent US20260008817A1, “CYCLIC PEPTIDE OR SALT THEREOF, AND USES THEREOF” (FUJIFILM Corporation, priority 2023, published 2026).

Positions of bridges follow the written chain, without caps; N, C: chain ends. No end group written: not given here. COCH2 = acetyl group that carries the bridge

This test deals with T1, Recombinant Human FGFR1 alpha (IIIc) Fc Chimera Protein (Homo sapiens, UniProt P11362).
T1 construct: purchased R&D systems 658-FR-050
The experiment in a line: ELISA binding affinity of enzymatically synthesized peptide to FGFR. To be noted: ELISA luminescence signal at 10 nmol/L peptide, SEQ ID NO: 239 standardized to 1; enzyme synthesis product. On the procedure:
The binding affinity of the peptide to FGFR was evaluated using an ELISA method.
The peptide used for the evaluation was enzymatically synthesized by the following method.
First, a fusion peptide (SEQ ID NO: 25) in which a translation enhancing sequence (SEQ ID NO: 22), a peptide, a Myc tag (SEQ ID NO: 23), and a HiBiT tag (SEQ ID NO: 24) were linked in this order was designed. Next, a template DNA sequence (SEQ ID NO: 26) was designed in which a T7 promoter sequence, a Shine-Dalgarno sequence, a sequence necessary for transcription and translation initiation, such as a start codon (ATG), was provided on the 5′ terminal side of the DNA sequence encoding the fused peptide, and a stop codon group was provided on the 3′ terminal side thereof. In a case where the triplet TAG codon is included in the template DNA sequence, the above-described codon is assigned to the codon of chloroacetylated lysine, and thus, the peptide encoded by the above-described DNA sequence is a cyclic peptide in which a thiol group of cysteine and a chloroacetyl group of chloroacetylated lysine spontaneously form a thioether bond.
The cell-free enzymatic synthesis of the polypeptide was performed in a translation solution containing a template DNA, PUREfrex 2.0 (GeneFrontier, PF201-0.25-5), and Aminoacyl tRNA (1). 1.75 μL ([…]) of the template DNA prepared to 50 ng/μL, 2.5 μL of PUREfrex 2.0 Solution I, 0.25 μL of Solution II, 0.5 μL of Solution III, and a dried product of Aminoacyl tRNA (1) (final concentration: 0.5 ng/μL) were mixed and mixture was subjected to a reaction at 37° C. for 1 hour.
The concentration of the enzymatically synthesized peptide was measured using the peptide diluted with Can Get Signal Immunoreaction Enhancer Solution I (TOYOBO, NKB-101), Nano-Glo HiBiT Lytic Detection System (Promega, N3040), and a chemical synthetic peptide for a calibration curve having a known concentration (SEQ ID NO: 33) according to the standard protocol of the Nano-Glo HiBiT Lytic Detection System.
The binding affinity of the enzymatically synthesized peptide to FGFR was measured by evaluating the amount of the peptide bound to FGFR by ELISA.
First, 5 ng of Recombinant Human FGFR1 alpha (IIIc) Fc Chimera Protein (R&D systems, 658-FR-050) was immobilized in each well of a 96-well plate, and blocked with Pierce Protein-Free (PBS) Blocking Buffer (Thermo, 37572), and a peptide diluted with Can Get Signal Immunoreaction Enhancer Solution I (TOYOBO, NKB-101) was then added and reacted at room temperature for 3 hours. After washing with 0.05% Tween 20-containing phosphate buffered saline (PBS), an anti-Myc antibody (Cell Signaling, 14038S) diluted with Can Get Signal Immunoreaction Enhancer Solution II (TOYOBO, NKB-101) was added and reacted at room temperature for 2 hours. After washing with 0.05% Tween 20-containing PBS, SuperSignal ELISA Femto Substrate (Thermo, 37075) was added, and the luminescence amount was measured. The dose-response relationship was calculated from using the difference between the luminescence amount in the well in which FGFR was immobilized and the luminescence amount in the well in which FGFR was not immobilized, and the concentration of the peptide at the time of reaction, and the binding affinity to FGFR was evaluated according to the following evaluation criteria. The evaluation result preferably satisfies the evaluation criteria A, B, or C.
In a case where a value of a luminescence signal emitted by the cyclic peptide set forth in SEQ ID NO: 239 at a reaction concentration of 10 nmol/L is standardized to 1, evaluation criteria of the luminescence signal value emitted by the peptide at a reaction concentration of 10 nmol/L is as follows. • A: 0.7 or more • B: 0.5 or more and less than 0.7 • C: 0.1 or more and less than 0.5 • D: less than 0.1.
For orientation: An ELISA detects its analyte on a solid surface through an enzyme-linked reagent.

T1 sequence (P11362 with tags, fused parts or gaps limits assumed): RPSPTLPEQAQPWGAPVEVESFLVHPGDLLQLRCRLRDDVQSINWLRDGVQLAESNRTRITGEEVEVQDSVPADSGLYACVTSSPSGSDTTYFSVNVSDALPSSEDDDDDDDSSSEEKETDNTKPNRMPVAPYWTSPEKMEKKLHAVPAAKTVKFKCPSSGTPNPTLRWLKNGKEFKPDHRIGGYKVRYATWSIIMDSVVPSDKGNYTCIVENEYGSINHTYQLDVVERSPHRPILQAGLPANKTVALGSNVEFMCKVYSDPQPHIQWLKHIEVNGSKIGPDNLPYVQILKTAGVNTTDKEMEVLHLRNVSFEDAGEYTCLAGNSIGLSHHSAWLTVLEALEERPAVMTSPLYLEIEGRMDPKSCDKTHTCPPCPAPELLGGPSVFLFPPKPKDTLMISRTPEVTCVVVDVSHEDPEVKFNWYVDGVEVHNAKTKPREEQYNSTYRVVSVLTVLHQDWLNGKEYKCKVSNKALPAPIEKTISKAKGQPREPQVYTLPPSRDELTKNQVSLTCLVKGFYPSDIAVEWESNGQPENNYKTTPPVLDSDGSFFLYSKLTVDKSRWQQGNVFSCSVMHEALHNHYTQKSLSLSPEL

Turning to “34 (CRALLRGAPFHLAEC; disulfide 1-15 (inferred)) [compound 34]”, the “Evaluation result of binding affinity to FGFR” value (“Evaluation result” below) is reported as “D (less than 0.1)”.
As for “35 (CDRTLLYYRLSC; disulfide 1-12 (inferred)) [compound 35]”, the entry is “D (less than 0.1)”; as for “36 (CRALLRGAPFHLAEK; not fully specified; Description of Artificial Sequence: Cyclic peptide) [compound 36]”, “D (less than 0.1)”.
With “37 (CDRTLLYYRLSK; not fully specified; Description of Artificial Sequence: Cyclic peptide) [compound 37]”, the “Evaluation result” value is “D (less than 0.1)”.
As to “38 (ICVYTFDAHAHSLHAALTKI; not fully specified; Description of Artificial Sequence: Cyclic peptide) [compound 38]”, the “Evaluation result” value was “A (0.7 or more)”.
With “39 (ACVYTFDAHAHSLHAALTK(COCH2)I; thioether 2-19 (inferred)) [compound 39]”, the “Evaluation result” value is given as “A (0.7 or more)”.
In the case of “40 (GCVYTFDAHAHSLHAALTK(COCH2)I; thioether 2-19 (inferred)) [compound 40]” it was “A (0.7 or more)”; in that of “41 (PCVYTFDAHAHSLHAALTK(COCH2)I; thioether 2-19 (inferred)) [compound 41]”, “A (0.7 or more)”; in that of “42 (LCVYTFDAHAHSLHAALTK(COCH2)I; thioether 2-19 (inferred)) [compound 42]”, “A (0.7 or more)”.
In the case of “43 (VCVYTFDAHAHSLHAALTK(COCH2)I; thioether 2-19 (inferred)) [compound 43]” it was “A (0.7 or more)”; in that of “44 (FCVYTFDAHAHSLHAALTK(COCH2)I; thioether 2-19 (inferred)) [compound 44]”, “A (0.7 or more)”; in that of “45 (YCVYTFDAHAHSLHAALTK(COCH2)I; thioether 2-19 (inferred)) [compound 45]”, “A (0.7 or more)”.
In the case of “46 (WCVYTFDAHAHSLHAALTK(COCH2)I; thioether 2-19 (inferred)) [compound 46]” it was “B (0.5 or more and less than 0.7)”; in that of “47 (NCVYTFDAHAHSLHAALTK(COCH2)I; thioether 2-19 (inferred)) [compound 47]”, “A (0.7 or more)”.
On to “48 (QCVYTFDAHAHSLHAALTK(COCH2)I; thioether 2-19 (inferred)) [compound 48]”, for which the “Evaluation result” value was “A (0.7 or more)”.
As for “49 (SCVYTFDAHAHSLHAALTK(COCH2)I; thioether 2-19 (inferred)) [compound 49]”, the entry is “A (0.7 or more)”.
In the case of “50 (TCVYTFDAHAHSLHAALTK(COCH2)I; thioether 2-19 (inferred)) [compound 50]” it was “A (0.7 or more)”; in that of “51 (DCVYTFDAHAHSLHAALTK(COCH2)I; thioether 2-19 (inferred)) [compound 51]”, “A (0.7 or more)”.
Take “52 (ECVYTFDAHAHSLHAALTK(COCH2)I; thioether 2-19 (inferred)) [compound 52]”: the “Evaluation result” value is reported as “A (0.7 or more)”.
As for “53 (RCVYTFDAHAHSLHAALTK(COCH2)I; thioether 2-19 (inferred)) [compound 53]”, the entry is “A (0.7 or more)”.
In the case of “54 (HCVYTFDAHAHSLHAALTK(COCH2)I; thioether 2-19 (inferred)) [compound 54]” it was “A (0.7 or more)”.
In the case of “55 (ICAYTFDAHAHSLHAALTK(COCH2)I; thioether 2-19 (inferred)) [compound 55]” it was “C (0.1 or more and less than 0.5)”.
